According to US20250327097A1, “ORGANISMS PRODUCING LESS CROTONIC ACID” (Global Bioenergies, priority 2021, published 2025):

B1: N287Q-N388M-K394R-C430N-L432F-L434W-S436N (protein)
chain: MFLKSLREQINLLKRQGDLRIINRPVDSYLEAAAIIRRSTETKAPVPLMTNIKGYPGCSIVGGLAALSSNPEYPLSRVAMSLGLSTTASAQSIVQYLIDGLKKTPYLPVEIDSNSAPCKQNILRGEDASLAHFPIPQVHQHDGNRYVNTWGVFIVESPDGQWCNWSIQRVQYLNDRQMIALVFPSQHISDIWEEWVKIGKPMPYALVQGCEPIVPYIAGLPLLERNVNEAEYIGALYGKGIEVVKCETHDLRVPASSEVVIEGYFAITREGVEGPFGEFAGYIPNEQSLQPILSITAISWQDDPIWPVVAEGKPVDEYHTCSGIGDAAAIQNVLLTANLPVSFVWVPLYSACHLMIVSINRHWRQTHPDLTSEQLTKKVGDVIHQTRMSIKLPRIVVLDDDVDPADTESLLWALATRIHPERKRYFYESNIFPWLNCYSEEERHNRKGKRVIIDALLPENHGAISSFDYAYPDDIKQRVLMHWETDFSHD
B2: I283T-N285P-N287T-Q290E-S322T-N388M-K394R-C430A-L432F-L434W-S436N-H444R-dG462 (protein)
chain: MFLKSLREQINLLKRQGDLRIINRPVDSYLEAAAIIRRSTETKAPVPLMTNIKGYPGCSIVGGLAALSSNPEYPLSRVAMSLGLSTTASAQSIVQYLIDGLKKTPYLPVEIDSNSAPCKQNILRGEDASLAHFPIPQVHQHDGNRYVNTWGVFIVESPDGQWCNWSIQRVQYLNDRQMIALVFPSQHISDIWEEWVKIGKPMPYALVQGCEPIVPYIAGLPLLERNVNEAEYIGALYGKGIEVVKCETHDLRVPASSEVVIEGYFAITREGVEGPFGEFAGYTPPETSLEPILSITAISWQDDPIWPVVAEGKPVDEYHTCTGIGDAAAIQNVLLTANLPVSFVWVPLYSACHLMIVSINRHWRQTHPDLTSEQLTKKVGDVIHQTRMSIKLPRIVVLDDDVDPADTESLLWALATRIHPERKRYFYESAIFPWLNCYSEEERRNRKGKRVIIDALLPENHGAISSFDYAYPDDIKQRVLMHWETDFSHD
B3: I283L-N285P-N287T-Q290E-S322T-N388M-K394R-C430A-L432F-L434W-S436N-dG462 (protein)
chain: MFLKSLREQINLLKRQGDLRIINRPVDSYLEAAAIIRRSTETKAPVPLMTNIKGYPGCSIVGGLAALSSNPEYPLSRVAMSLGLSTTASAQSIVQYLIDGLKKTPYLPVEIDSNSAPCKQNILRGEDASLAHFPIPQVHQHDGNRYVNTWGVFIVESPDGQWCNWSIQRVQYLNDRQMIALVFPSQHISDIWEEWVKIGKPMPYALVQGCEPIVPYIAGLPLLERNVNEAEYIGALYGKGIEVVKCETHDLRVPASSEVVIEGYFAITREGVEGPFGEFAGYLPPETSLEPILSITAISWQDDPIWPVVAEGKPVDEYHTCTGIGDAAAIQNVLLTANLPVSFVWVPLYSACHLMIVSINRHWRQTHPDLTSEQLTKKVGDVIHQTRMSIKLPRIVVLDDDVDPADTESLLWALATRIHPERKRYFYESAIFPWLNCYSEEERHNRKGKRVIIDALLPENHGAISSFDYAYPDDIKQRVLMHWETDFSHD
B4: I283T-N285P-N287T-L289R-Q290E-S322T-N388M-K394R-C430A-L432F-L434W-S436N-dG462 (protein)
chain: MFLKSLREQINLLKRQGDLRIINRPVDSYLEAAAIIRRSTETKAPVPLMTNIKGYPGCSIVGGLAALSSNPEYPLSRVAMSLGLSTTASAQSIVQYLIDGLKKTPYLPVEIDSNSAPCKQNILRGEDASLAHFPIPQVHQHDGNRYVNTWGVFIVESPDGQWCNWSIQRVQYLNDRQMIALVFPSQHISDIWEEWVKIGKPMPYALVQGCEPIVPYIAGLPLLERNVNEAEYIGALYGKGIEVVKCETHDLRVPASSEVVIEGYFAITREGVEGPFGEFAGYTPPETSREPILSITAISWQDDPIWPVVAEGKPVDEYHTCTGIGDAAAIQNVLLTANLPVSFVWVPLYSACHLMIVSINRHWRQTHPDLTSEQLTKKVGDVIHQTRMSIKLPRIVVLDDDVDPADTESLLWALATRIHPERKRYFYESAIFPWLNCYSEEERHNRKGKRVIIDALLPENHGAISSFDYAYPDDIKQRVLMHWETDFSHD
B5: I283T-N285P-N287T-L289C-Q290E-S322T-N388M-K394R-C430A-L432F-L434W-S436N-dG462 (protein)
chain: MFLKSLREQINLLKRQGDLRIINRPVDSYLEAAAIIRRSTETKAPVPLMTNIKGYPGCSIVGGLAALSSNPEYPLSRVAMSLGLSTTASAQSIVQYLIDGLKKTPYLPVEIDSNSAPCKQNILRGEDASLAHFPIPQVHQHDGNRYVNTWGVFIVESPDGQWCNWSIQRVQYLNDRQMIALVFPSQHISDIWEEWVKIGKPMPYALVQGCEPIVPYIAGLPLLERNVNEAEYIGALYGKGIEVVKCETHDLRVPASSEVVIEGYFAITREGVEGPFGEFAGYTPPETSCEPILSITAISWQDDPIWPVVAEGKPVDEYHTCTGIGDAAAIQNVLLTANLPVSFVWVPLYSACHLMIVSINRHWRQTHPDLTSEQLTKKVGDVIHQTRMSIKLPRIVVLDDDVDPADTESLLWALATRIHPERKRYFYESAIFPWLNCYSEEERHNRKGKRVIIDALLPENHGAISSFDYAYPDDIKQRVLMHWETDFSHD
B6: I283T-N285P-N287T-Q290E-S322T-N388M-K394R-K423G-C430A-L432F-L434W-S436N-dG462 (protein)
chain: MFLKSLREQINLLKRQGDLRIINRPVDSYLEAAAIIRRSTETKAPVPLMTNIKGYPGCSIVGGLAALSSNPEYPLSRVAMSLGLSTTASAQSIVQYLIDGLKKTPYLPVEIDSNSAPCKQNILRGEDASLAHFPIPQVHQHDGNRYVNTWGVFIVESPDGQWCNWSIQRVQYLNDRQMIALVFPSQHISDIWEEWVKIGKPMPYALVQGCEPIVPYIAGLPLLERNVNEAEYIGALYGKGIEVVKCETHDLRVPASSEVVIEGYFAITREGVEGPFGEFAGYTPPETSLEPILSITAISWQDDPIWPVVAEGKPVDEYHTCTGIGDAAAIQNVLLTANLPVSFVWVPLYSACHLMIVSINRHWRQTHPDLTSEQLTKKVGDVIHQTRMSIKLPRIVVLDDDVDPADTESLLWALATRIHPERGRYFYESAIFPWLNCYSEEERHNRKGKRVIIDALLPENHGAISSFDYAYPDDIKQRVLMHWETDFSHD
B7: I283T-N285P-N287T-Q290E-S322T-Q365T-N388M-K394R-C430A-L432F-L434W-S436N-dG462 (protein)
chain: MFLKSLREQINLLKRQGDLRIINRPVDSYLEAAAIIRRSTETKAPVPLMTNIKGYPGCSIVGGLAALSSNPEYPLSRVAMSLGLSTTASAQSIVQYLIDGLKKTPYLPVEIDSNSAPCKQNILRGEDASLAHFPIPQVHQHDGNRYVNTWGVFIVESPDGQWCNWSIQRVQYLNDRQMIALVFPSQHISDIWEEWVKIGKPMPYALVQGCEPIVPYIAGLPLLERNVNEAEYIGALYGKGIEVVKCETHDLRVPASSEVVIEGYFAITREGVEGPFGEFAGYTPPETSLEPILSITAISWQDDPIWPVVAEGKPVDEYHTCTGIGDAAAIQNVLLTANLPVSFVWVPLYSACHLMIVSINRHWRTTHPDLTSEQLTKKVGDVIHQTRMSIKLPRIVVLDDDVDPADTESLLWALATRIHPERKRYFYESAIFPWLNCYSEEERHNRKGKRVIIDALLPENHGAISSFDYAYPDDIKQRVLMHWETDFSHD
B8: I283T-N285P-N287T-L289W-Q290E-S322T-N388M-K394R-C430A-L432F-L434W-S436N-dG462 (protein)
chain: MFLKSLREQINLLKRQGDLRIINRPVDSYLEAAAIIRRSTETKAPVPLMTNIKGYPGCSIVGGLAALSSNPEYPLSRVAMSLGLSTTASAQSIVQYLIDGLKKTPYLPVEIDSNSAPCKQNILRGEDASLAHFPIPQVHQHDGNRYVNTWGVFIVESPDGQWCNWSIQRVQYLNDRQMIALVFPSQHISDIWEEWVKIGKPMPYALVQGCEPIVPYIAGLPLLERNVNEAEYIGALYGKGIEVVKCETHDLRVPASSEVVIEGYFAITREGVEGPFGEFAGYTPPETSWEPILSITAISWQDDPIWPVVAEGKPVDEYHTCTGIGDAAAIQNVLLTANLPVSFVWVPLYSACHLMIVSINRHWRQTHPDLTSEQLTKKVGDVIHQTRMSIKLPRIVVLDDDVDPADTESLLWALATRIHPERKRYFYESAIFPWLNCYSEEERHNRKGKRVIIDALLPENHGAISSFDYAYPDDIKQRVLMHWETDFSHD
B9: I283T-N285P-N287T-Q290E-S322T-N388M-K394R-C430V-L432F-L434W-S436N-dG462 (protein)
chain: MFLKSLREQINLLKRQGDLRIINRPVDSYLEAAAIIRRSTETKAPVPLMTNIKGYPGCSIVGGLAALSSNPEYPLSRVAMSLGLSTTASAQSIVQYLIDGLKKTPYLPVEIDSNSAPCKQNILRGEDASLAHFPIPQVHQHDGNRYVNTWGVFIVESPDGQWCNWSIQRVQYLNDRQMIALVFPSQHISDIWEEWVKIGKPMPYALVQGCEPIVPYIAGLPLLERNVNEAEYIGALYGKGIEVVKCETHDLRVPASSEVVIEGYFAITREGVEGPFGEFAGYTPPETSLEPILSITAISWQDDPIWPVVAEGKPVDEYHTCTGIGDAAAIQNVLLTANLPVSFVWVPLYSACHLMIVSINRHWRQTHPDLTSEQLTKKVGDVIHQTRMSIKLPRIVVLDDDVDPADTESLLWALATRIHPERKRYFYESVIFPWLNCYSEEERHNRKGKRVIIDALLPENHGAISSFDYAYPDDIKQRVLMHWETDFSHD
B10: I283T-N285P-N287T-Q290E-S322T-N388M-K394R-C430A-L432F-L434W-S436N-H444T-dG462 (protein)
chain: MFLKSLREQINLLKRQGDLRIINRPVDSYLEAAAIIRRSTETKAPVPLMTNIKGYPGCSIVGGLAALSSNPEYPLSRVAMSLGLSTTASAQSIVQYLIDGLKKTPYLPVEIDSNSAPCKQNILRGEDASLAHFPIPQVHQHDGNRYVNTWGVFIVESPDGQWCNWSIQRVQYLNDRQMIALVFPSQHISDIWEEWVKIGKPMPYALVQGCEPIVPYIAGLPLLERNVNEAEYIGALYGKGIEVVKCETHDLRVPASSEVVIEGYFAITREGVEGPFGEFAGYTPPETSLEPILSITAISWQDDPIWPVVAEGKPVDEYHTCTGIGDAAAIQNVLLTANLPVSFVWVPLYSACHLMIVSINRHWRQTHPDLTSEQLTKKVGDVIHQTRMSIKLPRIVVLDDDVDPADTESLLWALATRIHPERKRYFYESAIFPWLNCYSEEERTNRKGKRVIIDALLPENHGAISSFDYAYPDDIKQRVLMHWETDFSHD

Tested on: 3-methylcrotonic acid
Format: biochemical, Yersinia frederiksenii
Parameters: key: “+” representing a low increase in activity; “++++” representing a high increase in activity

Row | Molecule | Activity relative to WT
1 | B1 | +
2 | B2 | ++++
3 | B3 | ++++
4 | B4 | ++++
5 | B5 | ++++
6 | B6 | ++++
7 | B7 | ++++
8 | B8 | ++++
9 | B9 | ++++
10 | B10 | ++++
